Experimental data reported in publication PMC3182996.

Assays:
[1] = target: Aβ^40WT fibrils (pre-formed fibrils of wild type Aβ1–40) (UniProt P05067); experiment: SPR; co-injection: 2 µM Aβ injected for 30 s over immobilised pre-formed fibrils at 20 µl/min in PBS at 25°C, at once followed by 0–400 nM Aβ; the concentration that gives a plateau (critical concentration) is taken as the binding constant
[2] = target: Aβ^40Arc fibrils (pre-formed fibrils of Aβ1–40 Glu22Gly); experiment: as above

- Kd [1]: 50 nM
- Kd [2]: 100 nM
Substance: Aβ1–40 Glu22Gly (Arctic variant), monomeric (peptide)
